Values of other authors in paper PMC13341169.
Like-named read-outs stand apart in the source and are kept apart here.

Experiments:
[1] = target: PKA C-subunit (Homo sapiens) (UniProt P17612)
[2] = target: PKA C-subunit (Homo sapiens) (UniProt P17612); remark: listed apart in the source

| Kd [1] [nM] | Kd [2] [nM] | Substance |
| --- | --- | --- |
| 7.1 |  | PKIβ (from UniProt Q9C010) |
|  | 0.4 | PKIγ (from UniProt Q9Y2B9) |
